Measurements reported in the nanobody polyreactivity screen of Harvey et al. (2022).

Assay: yeast display, Sf9 membrane polyspecificity reagent, FACS + sequencing; frameworks hold sequencing errors
In short: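 Genes from sorted yeast were amplified by colony PCR, read by MiSeq 2 × 250 sequencing and filtered on CDR length. These cells carried a synthetic nanobody library in Saccharomyces cerevisiae BJ5465 and were sorted by FACS into low and high (top ~1%) gates on anti-HA and streptavidin fluorescence. Polyreactivity is labelled according to the gate of origin.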

Row | Sequence | polyreactivity (PSR sort gate)
1 | QVQLVESGGGLVQAGGSLRLSCAASGRIFYYYTMAWYRQAPGKERELVAAISWGGVNTDYADSVKGRFTISRDNAKNTVYLQMNSLKPEDTAVYYCAAGRWSVGTYDYWGQGTQVTVSS | low polyreactivity
2 | QVQLVESGGGLVQAGGSLRLSCAASGRIFYYYVMGWYRQAPGKERELVAAISSRGGCTYYADSVKGRFTISRDNAKNTVYLQMNSLKPEDTAVYYCAAEYGSISLRYPYYWRYDYWGQGTQVTVSS | high polyreactivity
3 | QVQLVESGGGLVQAGGSLRLSCAASGRIGRNAMGWYRQAPVKERELVATISWSAGRTFYADSVKGRFTISRDNAKNTVYLQMNSLKPEDTAVYYCAAGGWQRGYYWGQGTQVTVSS | high polyreactivity
4 | QVQLVESGGGLVQAGGSLRLSCAASGRIGVNAMGWYRPAPGKERELVAAITGGASTYYADSVKGRFTISRDNAKNTVYLQMNSLKPEDTAVYYCNATGEYFGYLDLDYDYWGQGTQVTVSS | low polyreactivity
5 | QVQLVESGGGLVQAGGSLRLSCAASGRIIAGYTMGWYRQAPGKERELVAAIRSSGRTHYADSVKGRFTISRDNAKNTVYLQMNSLKPEDTAVYYCAARWTYTFAYRFDYWGQGTQVTVSS | high polyreactivity
6 | QVQLVESGGGLVQAGGSLRLSCAASGRIIGHYAMGWYRQAPGKERDLVAAISRGGSTYYADSVKGRFTISRDNAKNTVYLQKTSLKPEDTAVYYCAVRSGRRNYDRPAFGYWGQGTQVTVSS | high polyreactivity
7 | QVQLVESGGGLVQAGGSLRLSCAASGRIIGINAMGWYRQAPGKERELVATITSGGDTNYADSVKGRFTISRDNAKNTVYLQMNSLKPEDTAVYYCNAESYGLGFGYDYWGQGTQVTVSS | low polyreactivity
8 | QVQLVESGGGLVQAGGSLRLSCAASGRIIGLYALGWYRQATGKERELVAAISSAGSTYYADSVKGRFTISRDNAKNTVYLQMNSLKPEDTAVYYCAKSRYRGYDYWGQGTQVTVSS | low polyreactivity
9 | QVQLVESGGGLVQAGGSLRLSCAASGRIIGYYAMGWYRQAPGKERELVAAISRRGGSTYYADSVKGRFTISRDNAKNTVYLQINSLKPEDTAVYYCNADRVLTRPRYDYWGQGTQVTVSS | low polyreactivity
10 | QVQLVESGGGLVQAGGSLRLSCAASGRIIGYYAMGWYRQAPGKERELVATINYSGGRTYYADSVKGRFTISRDNAKNTVYLQMNSLKPEDTAVYYCNARESGRGSHDDYWGHGTQVTVSS | high polyreactivity
11 | QVQLVESGGGLVQAGGSLRLSCAASGRIILLYTMGWYRQAPGKERELVAAISRSGGITYADSVKGRFTISRDNAKNTVYLQMNSLKPEDTAVYYCAKGGSSHAKGHFDYWGQGTQVTVSS | low polyreactivity
12 | QVQLVESGGGLVQAGGSLRLSCAASGRIILVYAMGWYRQAPGKERELVAAISSGGSTYYADSVKGRLTISRDNAKNTVYLQMNSLKPEDTAVYYCAARTAVGPIRSYWYDYWGQGTQVTVSS | low polyreactivity
13 | QVQLVESGGGLVQAGGSLRLSCAASGRIIPYYAMGWYRQAPGKERELVAAISSSGGRTYYADSVKGRFTISRDNAKNTVYLQMNSLKPEDTAVYYCAAGFPTFGWDKVRFIMYYWGQGTQVTVSS | high polyreactivity
14 | QVQLVESGGGLVQAGGSLRLSCAASGRIIQYNAMGWYRQAPGKERELVAAISWRSGRTYYADSVKGRFTISRDNAKNTVYLQMNSLKPEDTAVYYCAATSRTSWYGYWGQGTQVTVSS | high polyreactivity
15 | QVQLVESGGGLVQAGGSLRLSCAASGRIIRGNAMGWYRQAPGKERELVAAISVRGGNTRYADSVKGRFTISRDNAKNSVYLQMNSLKPEDTAVYFCKKRSYLPEMEYWGQGSQVTVSS | low polyreactivity
16 | QVQLVESGGGLVQAGGSLRLSCAASGRIISSNAMGWYRQAPGKEREFVAAISWRTGSTYYADSVKGRFTISRDNAKNTVYLQMNILKPEDTAVYYCNKRNGSYCYPYYYWGQGTQVTVSS | high polyreactivity
17 | QVQLVESGGGLVQAGGSLRLSCAASGRIISVYAMGWYRQAPGKERELVATITGGNTNYADSVKGRFTISRDNAKNTVYLQMNSLKPEDTAVYYCANQFLPSGVYYEYDSWGQGTQVTVSS | low polyreactivity
18 | QVQLVESGGGLVQAGGSLRLSCAASGRIITAYAMGWNRQAPGKEREFVAAINVSGGSTYYADSVKGRFTISRDNAKNTVYLQMNSLKPEDTAVYYCNADYYYYDIYWWKMDYWGQGTQVTVSS | low polyreactivity
19 | QVQLVESGGGLVQAGGSLRLSCAASGRIITINAMGWYRQAPGKERELVAAITGSAASTYYADSVKGRFTISRDNAKNTVYLQMNILKPEDTAVYYCAVDRRPYSGHGYDYWGQGTQVTVSS | high polyreactivity
20 | QVQLVESGGGLVQAGGSLRLSCAASGRIITKYNTMGCYRPATGIEMELVAAINRSAGSTYYADSVKGRFTISRDNAKNTVYLQMNSLKTEDTAVYYCAAKRGASYGSSLGAPRRHYDEYWGQGTQVTVSS | low polyreactivity
21 | QVQLVESGGGLVQAGGSLRLSCAASGRIITLYAMGWYRQAPGKERELVAGISRSGGSTYYADSVKGRFTISRDNAKNTVYLQMNSLKPEDTAVSYCNAVPIYYAWRRNKPFDYWGQGTQVTVSS | low polyreactivity
22 | QVQLVESGGGLVQAGGSLRLSCAASGRIITYYAMGWYRQAPGKERELVAVISSVGGTYYADSVKGRFTISRDNAKNTVYLQMNSLKPEDTAVYYCAVGKIWSRRSSTSRFGYWGQGTQVTVSS | high polyreactivity
